Laboratory results from US6045793.

Biological target: [Met-(-1)]rOncG20 (Rana pipiens)

Work on “Placental ribonuclease inhibitor (from UniProt P13489)” yielded a Fold Difference of IC50 (ng/ml) in rabbit reticulocyte lysate, (+)PRI against (-)PRI of 0.9 fold and an IC50 (ng/ml) of the RNase for inhibition of protein synthesis in rabbit reticulocyte lysate, (+)PRI of 24 ng/mL.
